Molecular target: T1, human PAR1 (Homo sapiens, UniProt P25116, INS26FLNCCPGCCMEPA)
T1 construct: expressed in transfected cells; host or cells: COS-1
T1 sequence (P25116 with tags, fused parts or gaps limits assumed): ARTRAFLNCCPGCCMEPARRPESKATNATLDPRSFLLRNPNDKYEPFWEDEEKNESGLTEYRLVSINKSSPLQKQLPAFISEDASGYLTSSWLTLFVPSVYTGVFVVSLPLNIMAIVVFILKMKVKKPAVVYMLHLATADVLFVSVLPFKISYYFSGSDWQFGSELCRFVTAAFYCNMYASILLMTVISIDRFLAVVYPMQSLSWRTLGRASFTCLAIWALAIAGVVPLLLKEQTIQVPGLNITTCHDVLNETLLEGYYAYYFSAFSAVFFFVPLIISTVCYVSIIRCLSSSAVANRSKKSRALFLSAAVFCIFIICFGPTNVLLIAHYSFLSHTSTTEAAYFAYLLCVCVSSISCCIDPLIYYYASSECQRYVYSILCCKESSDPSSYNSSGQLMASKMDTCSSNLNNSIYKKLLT
Experiment: Release of N-terminal BAB motif from PAR1 on COS-1 cells
Assay type: cell-based
Conditions: 0.1 and 0.5 units per ml, 37°C, 30 minutes
Excerpt: The biarsenical fluorochrome binding domain (BAB), containing a tetra-cysteine motif, […] for PAR1, […] for PAR2 and […] for PAR4 was inserted into the receptor N-terminal domains by introducing corresponding oligonucleotides just downstream of the signal peptide of PARs, after A26 for human PAR1, Q27 for human PAR2 and V25 for human PAR4. The PAR DNA constructs containing the N-terminal BAB domain and a YFP C-terminal fluorochrome tag were cloned in pCDNA3.1+ at the restriction enzyme sites between Eco RI and Xba I. COS-1 cells obtained from ATCC (Manassas, VA USA) were transected with the PAR constructs with the FuGENE6 transfection reagent (Roche Applied Bioscience). The expression level of the expressed receptor was quantified using a fluorescence plate reader, (Victor 4X, Perkin-Elmer), and confocal microscopy was used to monitor the receptor location by visualizing the receptor YFP tag. […] Then, the peptide(s) containing the receptor BAB tetracysteine motif released by proteinases from the receptor N-terminus into the cell culture supernatant was quantified using a Victor X4 fluorescent plate reader with an excitation wavelength of 540 nm and an emission wavelength monitored at 615 nm. […]

B1: ISP1: recombinant implantation serine proteinase 1 expressed in Pichia pastoris, also known as Mouse Prss28 (protein, UniProt Q924N9 27-274, looked up)
Serine protease 28: KPVGIVGGQRTPPGKWPWQVSLRMYSYEVNSWVHICGGSIIHPQWILTAAHCIQSQDADPAVYRVQVGEVYLYKEQELLNISRIIIHPDYNDVSKRFDLALMQLTALLVTSTNVSPVSLPKDSSTFDSTDQCWLVGWGNLLQRVPLQPPYQLHEVKIPIQDNKSCKRAYRKKSSDEHKAVAIFDDMLCAGTSGRGPCFGDSGGPLVCWKSNKWIQVGVVSKGIDCSNNLPSIFSRVQSSLAWIHQHIQ
modifications: recombinant, Pichia pastoris-expressed
notes: recombinant implantation serine proteinase 1 expressed in Pichia pastoris, also known as Mouse Prss28
  Release of PAR1 N-terminal BAB domain (PAR cleavage activity): significant concentration-dependent PAR cleavage activity
